Results published in the DeepSol protein solubility set.

Experiment: soluble on expression in E. coli; label from the status in PepcDB or PDB records

Sequence | soluble on expression in E. coli
MEKPVMCKIIDVLDESPTVKTFLLDKEFDFKPGQFAMVWIPEIDEKPFGFSSKNSISIAKVGRFTEKIHSLKKGDLLGIRGPYGNNFEYMGSKILAVAGGIGSAPIISAVEKFSKMDVEVTSIIGGRTKDELLFLDRFEKCGRTFACTDDCSYGFGGFTTEKMLELLSKEKFDMIISCGPEIMMKKVVEIAEKHAIPIQVSLERYMKCGIGICGHCAVDDEGLCICKDGPVFWNDKLKFVSEFGKYKRDASGAIL | not soluble
MSLINAGITTVGEFHYVHHSEQKFDLDQLVIQAAIDAGIRIVLLQTLYERAGFDSPAVHPVQERFIASYEDFIGNLEKLRKEKTHERVQIGVAAHSARAVPFENIKKLFEYASEHKIPFHIHLEEQPKEIFDCQKFIGQKQGPSDLILSKMHLNEYFTAVHSTFTPANNMLLFSKLGANVSICPCTEGYLGDGIPRINESLKISFGTDCNNRICFLEEMRWACFSQQMLNNSRSVCGLSPEKLLLCATIDGARALSLTSKTGSLEVGKYFDAISFSLDSPLLENSLADTLIDSLVLSAGNREISNVFVSGVDRKTEGHHHHHH | not soluble
MINLQDVSKVYKSKHGDVNAVQNVSLSIKKGEIFGIIGYSGAGKSSLIRLLNGLEKPTSGTVEVAGTKINEVNGRGLRKARHEISMIFQHFNLLWSRTVRDNIMFPLEIAGVKKSERIKRANELIKLVGLEGKEKSYPSQLSGGQKQRVGIARALANNPKVLLCDEATSALDPQTTDSILDLLSDINERLGLTIVLITHEMHVIRKICNRVAVMENGKVVEEGEVLDVFKNPKEQMTKRFVQQVTEPEETKETLQHLLDDTASGKMVQLTFVGESAEQPLITEMIRNFNVSVNILQGKISQTKDGAYGSLFIHIDGDEEEVQNVIRFINDKQVKAEVITNV | not soluble
MGSDKIHHHHHHMPDGNQSLTVTVLSAIAEIGAEEWDGCAGSHNPFIRHAFLLAMEHSGSATAQTGWTPRHLAVRDAEGRLLAAAPLYLKSHSFGEYVFDWSWAQAYERAGGRYYPKLQCAVPFTPVTGPRLLVRPGEDGPRLRRVLAASMVDLARRLGASSVHVTFPSGQEYEGLGEVGYLQRLGSQYHWSNQGYQSFDDFLGQLSSRKRKQIRKERDAVARSGVRITTLVGTEVKSRHWDVFHAFYESVVDRKWGRAYVNRAFFEELSASNLAEAVVLVWAEDDGEPLGAAFNMLGKDTLYGRTWGGGRHVDFLHFEACYYRALDFAIAHGLARVEAGAQGEHKVSRGYLPTPTYSAHWIADAALAEPVARYLAHERAQVAEDMADQTEEGPFRKA | not soluble
MAHHHHHHGHHHQLENLYFQGEETAVPENSGANTELVSGESEHSTNEADKQNEGEHARENKLEKAEGVATASETASPASNEAATTETAEAASAAKPEEKASEVVAETPSAEAKPKSDKETEAKPEATNQGDESKPAAEANKTEKEVQPDVPKNTEKTLKPKEIKFNSWEELLKWEPGAREDDAINRGSVVLASRRTGHLVNEKASKEAKVQALSNTNSKAKDHASVGGEEFKAYAFDYWQYLDSMVFWEGLVPTPDVIDAGHRNGVPVYGTLFFNWSNSIADQERFAEALKQDADGSFPIARKLVDMAKYYGYDGYFINQETTGDLVKPLGEKMRQFMLYSKEYAAKVNHPIKYSWYDAMTYNYGRYHQDGLGEYNYQFMQPEGDKVPADNFFANFNWDKAKNDYTIATANWIGRNPYDVFAGLELQQGGSYKTKVKWNDILDENGKLRLSLGLFAPDTITSLGKTGEDYHKNEDIFFTGYQGDPTGQKPGDKDWYGIANLVADRTPAVGNTFTTSFNTGHGKKWFVDGKVSKDSEWNYRSVSGVLPTWRWWQTSTGEKLRAEYDFTDAYNGGNSLKFSGDVAGKTDQDVRLYSTKLEVTEKTKLRVAHKGGKGSKVYMAFSTTPDYKFDDADAWKELTLSDNWTNEEFDLSSLAGKTIYAVKLFFEHEGAVKDYQFNLGQLTISDNHQEPQSPTSFSVVKQSLKNAQEAEAVVQFKGNKDADFYEVYEKDGDSWKLLTGSSSTTIYLPKVSRSASAQGTTQELKVVAVGKNGVRSEAATTTFDWGMTVKDTSLPKPLAENIVPGATVIDSTFPKTEGGEGIEGMLNGTITSLSDKWSSAQLSGSVDIRLTKSRTVVRWVMDHAGAGGESVNDGLMNTKDFDLYYKDADGEWKLAKEVRGNKAHVTDITLDKPITAQDWRLNVVTSDNGTPWKAIRI | soluble
MGSDKIHHHHHHMSRYVIRTYKVPVPVELYPLCSELNRIAARIYNKTMSLVKKIKNKKGFWLSPNTAQKYILRWSSAIDIHTHSKQAMVQLYFQALNSYFVAVKTNPHAKPPYKRKNFLPFIWKNQAIKLLPDGKVKLSMGRNREPFVIPTTLPAGTTIRQAKLVYEAGRYYLHLAIEVKSEHKRGQSQKVMSVDVGILRPITCFDGSEVISYHGGVLNSILRYRNKRLADIQRALSRCQKGSRRYKKLSRAKRRVLYKTRNQINDVLHKITSHFIGLCVQKNIGTIVVGDITNIRERTNGNDNFNQKLHQWAFRKLMSQIEYKAQIFGIEVVRISEAHTSKTCPVCGTQNRPSGRNYKCAGCGFEYHRDGVGAINIWKRYLGTKSQVVAGLAPARGVRFNPHLCGHGAISAPWKAA | not soluble
MTLLASLRDWLKAQQLDAVLLSSRQNKQPHLGISTGSGYVVISRESAHILVDSRYYVEVEARAQGYQLHLLDATNTLTTIVNQIIADEQLQTLGFEGQQVSWETAHRWQSELNAKLVSATPDVLRQIKTPEEVEKIRLACGIADRGAEHIRRFIQAGMSEREIAAELEWFMRQQGAEKASFDTIVASGWRGALPHGKASDKIVAAGEFVTLDFGALYQGYCSDMTRTLLVNGEGVSAESHLLFNVYQIVLQAQLAAISAIRPGVRCQQVDDAARRVITEAGYGDYFGHNTGHAIGIEVHEDPRFSPRDTTTLQPGMLLTVEPGIYLPGQGGVRIEDVVLVTPQGAEVLYAMPKTVLLTGEA | soluble
MSLEYQWGFANISMNYLDWTRSTTHKSGDSSHKDDFAYIELEGGAGYSWGEMYGFFDLENPFNSKTAQPGDNQRYTFKTTGRYYLGDSGFNLYGHIYGTYSLPSAEGNDYSNFHEVNTLYGIGYNATVAGVWMKPFVALHYVDQTYYSGNNGYVVGWVAGYDFTAFDENFSITNWNELEFNRAERYAAGNGGRNGVNGALALWWTPIKQFTTGIQYRYAYNKLGEDFLQDGIVYSIKYNFEGHHHHHH | not soluble
MTKQAEETQKPIIFAPETYQYDKFTLNEKQLTDDPIDLFTKWFNEAKEDPRETLPEAITFSSAELPSGRVSSRILLFKELDHRGFTIYSNWGTSRKAHDIATNPNAAIVFFWKDLQRQVRVEGITEHVNRETSERYFKTRPRGSKIGAWASRQSDVIKNREELDELTQKNTERFKDAEDIPCPDYWGGLRIVPLEIEFWQGRPSRLHDRFVYRRKTENDPWKVVRLAP | soluble
MGSDKIHHHHHHMNERLRQGLVAAEGPLSGEVIKDVECVAGGCIHQAWCLQLKGGRQLFAKTGGADALPMLKVEVEGLKALKAWVDPGVLEVPEPLAFDQVCGEAVLLLPWLDFRAGNQASLGRGLALLHRASAAENPGRFGWPVDGFIGAGSQPGGWREQWGDAFVTLRLRPQLREAARWGLDLVDVEPILAALIPWLDRHQPSPSLVHGDLWSGNANVLSDGRGVLLDPATWWADREVDLAMTQLFGGFSQDFYIGYENVWPLPADASQRVEVYNLYHLINHANLFGGSYRNQSQAILNRLASWLLT | not soluble
MSLAARQTVTDVDSFSKELMTASPDLLGSMVKAFAEALMGAEVDGICNAEYGEISPERVNRRNGYRAREWDTRAGTIELAVPKLRQGSYFPEWLLTRRRRAEQALISVVATSYLLGVSTRRVDKLVEQLGVAHISKSQVSVLAKHLDTQVEAFRSRPLDAGPYRFVQADALTMKVREDGRVINVHCLLAVGVNGDGHREILGLDVVSSEDGAGWLAFFRGLVARGLSGVRLVTSDAHRGLVNAIGSTLPGASWQRCRTHYLRDLLTMTPKSSQPWVATLVRTVFDQADANEVGGQFDRVTEALSEKLPKAADHLSGAKADLLAFTTYPREVWRQIWSSNPQERLNKEIRRRTDVVGIFPDRDAIIRLVGAVLAEQHDEWIETHRYFGLEILAKVDATNKKSDTPEIGVTEGHHHHHH | soluble
MGSDKIHHHHHHDQEPPLYVNENDIFTSPTRIEATLNGLYAAIKNTGTKSLMGGKSYLVFDNRGDDVINISNNLVTLFNTYNMNVGITDAENADTWTYAYLAINKVNTFLQSLEGAREVAGENYDRYVQEAKFVRALAYYYLNNLYPTPYSVNPDAKSVPLRLTAEAGTENNNMPRSTVKQIYEHILSDLENISALDTEVNTYTGVTHATQAAANMLKMRVYMAMNEWDKAITAGELVTGYSLPEDVTLIYKAPYFSQESIFSLPMADTNIPNTQQSLAEYYYDGKIMLIDTKSGIMSKPDYSLATDKRIIAFKGEKDLLMKFTDAKTKLQWVPIFRYAETLLDLAECYANKAGGEATAKSLLKQVRGRSVDAATDPLNIDNLSGDALKEAIYNEKRLEFIGEGIRGIDIMRRGEHFIKVGENETINVGPSDEKYTWPIPQVELLLNKDINK | not soluble
MLYREHHSWIYTWLYRRLGNSADAADLAQDTFIRVITRKSLLEIEQPRAYLTTVAKSLMLNWFNRRNIEQAYLEVLANQPEFEHPSPEQRYLIVETLIEVIQLLDTLPDQIRDVFLHAQLENMNYQQIADQFNLSLSTVKRHIKKAYIHCLTAMLDTDFSC | not soluble
GQHSLQYFHTAVSRPGLGEPWFISVGYVDDTQFVRFDSDAENPRMEPRARWMEQEGPEYWERETQIAKGHEQSFRGSLRTAQSYYNQSKGGSHTLQWMYGCDMGSDGRLLRGYLQFAYEGRDYIALNEDLKTWTAVDMAAQITRRKWEQAGIAEKDQAYLEGTCMQSLRRYLELGKETLLRTDPPKAHVTHHPRSYGAVTLRCWALGFYPADITLTWQLNGEELTQDMELVETRPAGDGTFQKWASVVVPLGKEQNYTCHVNHEGLPEPLTLRW | soluble
MFKVTFAFENGSEVEAFANAGDNLLEVARGANVAIDAPCSGNGACGKCRVQLKGGELDSKKTLHISDEEFEKGWRLACMSKICADVEVLVPDIASAYKSRMKVADLSSKEEIAIFEKAKNQVEETGIQLRNSLEVVELQMTEPTLDDTMPDVERLTRALRKFMNLKRIRVPYAVLRKLPDVLRASKFSVKCVVRVTPDDMFVYDIFDAKEDVIMGGLAVDIGTTTVSAVIINMATGEILAKSSSGNGQIRYGADVINRIIETTKPGGIKKLQDAVIKETINPMIHEMCRSIHLPENQIYRMCVASNTTMNHLFAGINADYLRTEPYIPAFFKTNSLFASDVGIEINGDAHIIMAPNIGSYVGGDITAGTLVSMIWNRPEFSLFIDLGTNGELVFGNSDFMMSCACSAGPAFEGGDISCGMRATDGAIEACTIDKETMEPTYKVVGEPGTKPVGLCGSGIIDVISELFMTGIINPKGKFVREGKRVRHDHYGMGSYVIAFEEEAGSVKDVEITEVDIDNFIRAKGAIFSAIRTMLSSLDFDVSMIDDVYVAGGIGSGINMQNAVNIGMFPDVPLEKFHYIGNSSLTGAYLMLLSTQAEKKTYELASNMTYMELSTVPTYMDEFVGACFIPHTDASMFPNVHQRLEHHHHHH | not soluble
MGSDKIHHHHHHMNSIPHLILGDIITPTQAGQSLLIKKGYVLINGDSIIEVGEQAHFNKEISYTVSNYPDHLILPGLIDTHSHLSQYAICGAGDLPLMDWLNTLVFPAETAFSSNLQRCQRHAELYMHACLGSGTTTINTMVTSSRQATEIVCDVAARLGIRAFIGLVLMDRNAPDNLLVDCAQAFKDLTVLKDRYHGKNNIHITVSPRFAVTCSAAMLRQAGEFARANKLILHTHLDKDEGFDELIQSLFSTAHDYFDVFESTQCIADKTVFAHGTLLSLHEMKRMGDYAKQVGISHCPSSNFSFAMGMAPVSFFKGLGIEVGLGSDSGGGDSLSLFDEMRSASFTNKALWRLDKKTALIDAKTWLYHATLGGAKLLGLEKQIGSIEAGKKADLIILDDRNNYPLAELSSLSQELALDELQYRLARVIARSCENKLVAVYIDGKKVYQ | not soluble
